In assay [1] the target is T1, Mouse sIL6R (mouse, UniProt P22272 20-364).
T1 construct: extracellular domain; also called mouse receptor; mouse IL-6R
T1 sequence (looked up): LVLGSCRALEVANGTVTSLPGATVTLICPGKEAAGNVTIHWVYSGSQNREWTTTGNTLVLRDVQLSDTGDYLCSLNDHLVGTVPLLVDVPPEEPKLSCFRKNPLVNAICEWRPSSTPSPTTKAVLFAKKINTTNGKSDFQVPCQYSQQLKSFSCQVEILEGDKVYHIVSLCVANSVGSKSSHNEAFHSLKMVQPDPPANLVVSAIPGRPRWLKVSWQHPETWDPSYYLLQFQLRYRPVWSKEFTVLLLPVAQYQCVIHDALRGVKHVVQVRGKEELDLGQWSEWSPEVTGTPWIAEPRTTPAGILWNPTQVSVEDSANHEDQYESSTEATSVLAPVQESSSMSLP
As to the kind of experiment: BLI, Octet Red 96, BCD89 immobilised on AR2G sensors; Table 2 prints '-' for KD. The text has this: (§1) The interaction of the selected anti-IL6R with interleukin-6 receptors of cynomolgus, guinea pig, dog and mouse was examined with ELISA (FIG. 11, 12). The binding affinity constants of BCD89 antibody to IL-6sR alpha subunit of a human, cynomolgus, guinea pig, dog and mouse were obtained with Octet Red 96 (by ForteBio). BCD89 was nonspecifically immobilized onto the surface of amino reactive sensors of the second generation (AR2G) using standard protocol according to manufacturer's instruction for preparation and immobilization of AR2G sensors. Analysis was conducted at 30° C. using PBS comprising 0.1% Tween-20 and 0.1% BSA as a working buffer. Titration of IL-6R of a human, cynomolgus, guinea pig, dog, rabbit and mouse was performed using a running buffer from concentration of 126 nM to 2 nM, spacing 2.
(§2) Binding curves, after subtracting a reference signal, were analyzed using Octet Data Analysis software (Version 7.0) in accordance with the standard procedure and using 1:1 interaction model.
For orientation: In BLI a coated tip is dipped into the sample, and binding shifts an interference pattern.

Assay [2] deals with T2, Human sIL6R (recombinant IL-6sR alpha subunit of a human, Example 13) (human, UniProt P08887 20-365).
T2 construct: extracellular domain; also called recombinant IL-6R of a human; human IL-6R alpha subunit
T2 sequence (looked up): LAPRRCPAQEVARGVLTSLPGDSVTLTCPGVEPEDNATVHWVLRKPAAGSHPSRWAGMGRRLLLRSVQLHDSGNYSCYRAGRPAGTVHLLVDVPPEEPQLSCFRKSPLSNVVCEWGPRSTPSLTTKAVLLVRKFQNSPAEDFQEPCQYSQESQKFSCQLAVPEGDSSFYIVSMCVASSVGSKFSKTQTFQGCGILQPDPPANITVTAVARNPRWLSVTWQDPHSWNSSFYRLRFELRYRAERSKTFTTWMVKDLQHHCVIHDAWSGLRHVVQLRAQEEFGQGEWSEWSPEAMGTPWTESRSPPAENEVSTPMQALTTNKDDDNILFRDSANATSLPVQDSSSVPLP
Nature of the assay: BLI, Octet Red 96, BCD89 immobilised on AR2G sensors, receptor titrated from 126 nM to 2 nM, 1:1 model.
From the text: as §1, §2

Assay [3] addresses T3, Cynomolgus sIL6R (cynomolgus, UniProt A0A2K5WN54 60-396).
T3 construct: extracellular domain; also called IL-6sR of a cynomolgus; cynomolgus IL-6R alpha subunit
T3 sequence: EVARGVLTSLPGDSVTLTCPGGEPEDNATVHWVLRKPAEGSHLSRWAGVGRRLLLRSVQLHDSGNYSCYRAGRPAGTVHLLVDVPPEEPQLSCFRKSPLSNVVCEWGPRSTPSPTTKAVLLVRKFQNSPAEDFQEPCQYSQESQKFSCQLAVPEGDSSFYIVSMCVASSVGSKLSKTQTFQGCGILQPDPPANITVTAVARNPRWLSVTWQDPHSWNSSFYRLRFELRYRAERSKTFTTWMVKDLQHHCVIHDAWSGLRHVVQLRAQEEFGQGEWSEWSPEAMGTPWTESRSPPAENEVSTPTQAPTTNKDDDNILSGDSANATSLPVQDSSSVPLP
The assay is described as above.
From the text: as §1, §2

For assay [4], the target named is T4, Guinea Pig sIL6R (guinea pig).
T4 construct: extracellular domain; also called guinea pig IL-6R; guinea pig IL-6R alpha subunit
Described as above.
From the text: as §1, §2

B1: BCD089 antibody (anti-IL-6sR) (antibody, IgG1, V domains shown)
VH: QVQLVQSGGGLVQPGGSLRLSCAASGFTFSSYYMSWVRQAPGKGLEWVSGIYSDGTTHYGDSVKGRFTISRDNAKNTVYLQLNSLRAEDTAMYYCAKGAGPTWWYALDAWGQGTLVTVSS
VL: DIQLTQSPSSVSVSVGERVTIDCKSSQSVLSASNTYLNWYQQKPGQAPQLLIYYASTRESGVPDRFSGSGSGTDFTLTISSLQAEDAAVYYCQQAYRAPVTFGQGTKLEIKR
notes: None of these passages names BCD089; also called BCD89; BCD-BCD-089 IgG1
As usually defined, the Kd is the free concentration of one partner at which half of the binding sites on the other are occupied at equilibrium, for simple one-to-one binding. With B1, the binding result in assay [1] was “no binding”. For the same molecule, the results for the Kd in assay [2], in assay [3] and in assay [4] were 0.663 nM, 2.4 nM and 306 nM, respectively.

The values above are taken from US20190194313A1 (JOINT STOCK COMPANY BIOCAD, published 2019).
